Test results: publication PMC11617747 (Heliyon, 2024)

Tests used:
SEC = biological target: the molecule itself; assay: SEC
crystal structure = biological target: the molecule itself; assay: crystal structure
C-MabR [1] = biological target: T1, C-MabR (Mycobacterium tuberculosis, UniProt P9WPH5 161-414); assay: ITC; 20 C; 50 mM Tris pH 7.5, 150 mM NaCl; […]; […], room temperature 30 min; ITC: 50 mM Tris pH 7.5, 150 mM NaCl, 20 C; settings: protein: recombinant; tags: N-terminal 6xHis (pET28a); chain copies: 2; blunt
T1 sequence: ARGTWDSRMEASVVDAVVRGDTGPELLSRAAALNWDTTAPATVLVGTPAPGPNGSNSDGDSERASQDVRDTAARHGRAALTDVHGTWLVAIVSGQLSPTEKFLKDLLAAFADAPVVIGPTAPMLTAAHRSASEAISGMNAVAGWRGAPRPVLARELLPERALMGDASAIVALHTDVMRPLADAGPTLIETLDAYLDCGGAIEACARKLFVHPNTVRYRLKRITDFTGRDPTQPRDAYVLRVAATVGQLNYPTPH

N-MabR = biological target: T2, N-MabR (Mycobacterium tuberculosis, UniProt P9WPH5 1-160); assay: EMSA; up to 20 uM protein; […], room temperature 30 min; ITC: 50 mM Tris pH 7.5, 150 mM NaCl, 20 C; settings: protein: recombinant; tags: N-terminal 6xHis (pET28a); chain copies: 2; blunt
T2 sequence: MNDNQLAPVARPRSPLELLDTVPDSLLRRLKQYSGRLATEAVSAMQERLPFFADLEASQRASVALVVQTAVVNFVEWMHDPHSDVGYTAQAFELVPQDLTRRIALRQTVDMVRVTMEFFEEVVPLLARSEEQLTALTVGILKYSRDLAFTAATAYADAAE

C-MabR [2] = biological target: T1, C-MabR; assay: TSA (isothermal analysis); 46 C, apparent; […], room temperature 30 min; ITC: 50 mM Tris pH 7.5, 150 mM NaCl, 20 C; settings: protein: recombinant; tags: N-terminal 6xHis (pET28a); chain copies: 2; blunt

B1: N-terminal domain of Mycobacterium tuberculosis MabR (Rv2242), residues 1-160 (domain or fragment)
chain: MNDNQLAPVARPRSPLELLDTVPDSLLRRLKQYSGRLATEAVSAMQERLPFFADLEASQRASVALVVQTAVVNFVEWMHDPHSDVGYTAQAFELVPQDLTRRIALRQTVDMVRVTMEFFEEVVPLLARSEEQLTALTVGILKYSRDLAFTAATAYADAAE
stoichiometry N (SEC): 2

B2: C-terminal domain of Mycobacterium tuberculosis MabR (Rv2242), residues 161-414 (domain or fragment)
chain: ARGTWDSRMEASVVDAVVRGDTGPELLSRAAALNWDTTAPATVLVGTPAPGPNGSNSDGDSERASQDVRDTAARHGRAALTDVHGTWLVAIVSGQLSPTEKFLKDLLAAFADAPVVIGPTAPMLTAAHRSASEAISGMNAVAGWRGAPRPVLARELLPERALMGDASAIVALHTDVMRPLADAGPTLIETLDAYLDCGGAIEACARKLFVHPNTVRYRLKRITDFTGRDPTQPRDAYVLRVAATVGQLNYPTPH
binding result (crystal structure): binds

B3: 23-bp FAS-II promoter dsDNA (dsDNA)
DNA 1: GTTTTGTTGGTTATATACAAAAA
DNA 2: TTTTTGTATATAACCAACAAAAC
Kd (C-MabR [1]): 4300 nM
binding result (N-MabR): no binding
Kd (C-MabR [2]): ~1000 nM
